In patent US20240368617A1, “NPR1 VARIANT TO ENHANCE PLANT RESISTANCE TO BIOTIC AND ABIOTIC STRESSES AND METHOD THEREOF” (Duke University, published 2024):
Each block holds one binder with its values, some of them ahead of it.

Assays:
[1] = target: the molecule itself; assay: X-ray crystal structure of NPR1(deltaSBD); tetramer in the crystal
Experimental: 5. X-ray crystallography studies of NPR1 (ΔSBD)) and the TGA3 NID. Arabidopsis NPR1 (²SBD) (Thr39-Asp410) was cloned into the pTrcHis vector (Thermo Fisher Scientific) as a His10-MBP fusion protein containing a PreScission protease site following MBP and a C-terminal Strep tag. Expression and purification of NPR1 (²SBD) was performed using similar procedures to those described above for E. coli-expressed NPR1, except that the size-exclusion chromatography buffer contained 20 mM HEPES (pH 7.5), 150 mM NaCl and 1 mM TCEP. Protein crystals were grown using the sitting-drop vapor diffusion method at 20° C. Each drop was prepared by mixing 1 μl of the protein solution at 6 mg ml-1 with 1 μl of the reservoir solution containing 0.1 M HEPES (pH 7.5), 19% PEG 3350, 0.25 m tri-sodium citrate. Diffraction-quality protein crystals were collected after 1 week and cryoprotected with the reservoir solution containing 25% glycerol.

[2] = target: the molecule itself; assay: X-ray crystal structure, 1.5 A; self-association
Experimental: The Arabidopsis TGA3 NID (Ala160-Thr384) was cloned into the pTrcHis vector (Thermo Fisher Scientific) as a His10-MBP fusion protein containing a PreScission protease site following MBP and a C-terminal tandem Flag-HA tag. The purification procedure was per-formed similarly to that of Arabidopsis TGA3 (Asn87-Thr384) except that the size-exclusion chromatography buffer contained 20 mM HEPES (pH 7.5), 150 mM NaCl and 1 mM TCEP. Protein crystals were grown using the sitting-drop vapor diffusion method at 20° C. Each drop contained 1 μl of the protein solution mixed with 1 μl of the reservoir solution (0.1 m sodium acetate at pH 5.0, 20% (v/v) MPD). Diffraction quality protein crystals were collected after 1 week and cryoprotected with the reservoir solution also containing 25% glycerol.

[3] = target: the molecule itself; assay: cryo-EM of the NPR1-TGA3 complex; self-association
[4] = target: T1, Full-length Arabidopsis NPR1 with C-terminal Strep tag, expressed in E. coli (NPR1-Strep3) (Arabidopsis thaliana, UniProt P93002 1-593); assay: cryo-EM of BS3 cross-linked NPR1-TGA3-LS7 DNA complex
T1 construct: Full-length NPR1; Homodimer; Purified with 0.2 mM salicylic acid; also called WT NPR1; not shown: C-terminal Strep tag (Strep3) with its last Lys mutated to Arg
T1 sequence: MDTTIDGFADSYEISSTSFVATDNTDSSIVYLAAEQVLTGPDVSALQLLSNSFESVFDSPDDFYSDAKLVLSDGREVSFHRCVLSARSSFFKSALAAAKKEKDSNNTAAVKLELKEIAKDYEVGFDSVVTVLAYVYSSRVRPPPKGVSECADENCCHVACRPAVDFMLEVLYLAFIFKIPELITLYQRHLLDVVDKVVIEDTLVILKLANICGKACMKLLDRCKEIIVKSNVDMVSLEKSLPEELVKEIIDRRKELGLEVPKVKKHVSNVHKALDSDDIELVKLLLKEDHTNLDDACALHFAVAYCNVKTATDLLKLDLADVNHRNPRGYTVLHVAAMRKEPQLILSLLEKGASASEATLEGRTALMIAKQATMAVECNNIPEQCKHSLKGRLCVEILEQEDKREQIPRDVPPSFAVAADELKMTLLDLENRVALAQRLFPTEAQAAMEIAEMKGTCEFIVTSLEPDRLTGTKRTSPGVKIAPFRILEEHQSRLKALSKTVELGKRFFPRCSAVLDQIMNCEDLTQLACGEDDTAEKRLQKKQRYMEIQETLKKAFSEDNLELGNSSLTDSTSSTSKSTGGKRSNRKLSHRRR
Experimental: 2. NPR1 TGA3 LS7-DNA cryo-EM sample preparation. The purified NPR1-Strep3 (20 μM), TGA3-Flag-HA (48 μM) and the LS7 DNA containing a palindromic TGA-binding site (underlined in 5′-[…]-3′, 57.6 μM) were mixed and incubated at 4° C. for 30 min. The protein-DNA complex was cross-linked with 1.5 mM BS3 (Thermo Fisher Scientific) at room temperature for 30 min and quenched with 50 mM Tris (pH 8.0). The protein-DNA mixture was further purified using a Strep-Tactin column (Qiagen) and size-exclusion chromatography (Superose 6 in-crease 10/300 GL, Cytiva) in a buffer containing 25 mM HEPES (pH 7.5), 150 mM NaCl, 2 mM DTT and 0.2 mM SA.
3. Cryo-EM sample preparation and data collection. Cryo-EM grids containing the NPR1-TGA3-LS7-DNA complex were prepared using the Leica EM GP2 Automatic Plunge Freezer at 4° C. and 85% humidity. The UltrAuFoil R1.2/1.3 300-mesh grids (Quantifoil) were glow-discharged using the PELCO easiGlow Glow Discharge Cleaning System (Ted Pella). A 3 μl sample of NPR1-TGA3-LS7-DNA (˜1.3 mg/ml) was applied to the grid, incubated for 60 s in the chamber and blotted for 2.4 s with Whatman No. 1 filter paper (Whatman International) to re-move excess sample, and then plunge-frozen into liquid ethane cooled by liquid nitrogen. […]

[5] = target: T2, TGA3 (Asn87-Thr384) (Arabidopsis thaliana, UniProt Q39234 Q39234:87-384); assay: EMSA; conditions: tags: His10-MBP (PreScission site) N-terminal, C-terminal tandem Flag-HA; AT1G22070; E. coli; label: 6-FAM
T2 sequence: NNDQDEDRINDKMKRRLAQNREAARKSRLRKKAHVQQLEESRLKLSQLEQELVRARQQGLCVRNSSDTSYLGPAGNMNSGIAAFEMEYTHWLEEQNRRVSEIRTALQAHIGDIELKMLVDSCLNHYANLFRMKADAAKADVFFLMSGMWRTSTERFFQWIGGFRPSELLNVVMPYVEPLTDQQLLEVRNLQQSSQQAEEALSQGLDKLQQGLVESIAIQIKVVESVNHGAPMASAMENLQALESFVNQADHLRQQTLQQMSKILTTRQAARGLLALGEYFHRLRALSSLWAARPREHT
Experimental: The npr1(dim) mutant (L49D/F53D/V56D/V83K) was cloned into the pTrcHis vector (Thermo Fisher Scientific) as a His10-MBP fusion protein containing a PreScission protease site following MBP and a C-terminal Strep tag, and was expressed and purified similarly to the WT NPR 1 protein. Purified TGA3 (Asn87-Thr384) at a concentration of 0.6 μM and WT NPR1 or the npr1(dim) mutant at a concentration of 8 μM were used in the EMSA with the 6-fluorescein (6-FAM)-labelled oligonucleotide probes (200 nM) containing the LS5 and LS7 as-I cis-elements of the SA-responsive PRI gene promoter (LS5/LS7, 6-FAM-C-ggg[…]ggg) or DNA sequences with the two as-1 regions replaced with adenosines (LS5/LS7, 6-FAM-C-ggg[…]ggg), with the LS7 as-1 element replaced with adenosines (LS5/LS7, 6-FAM-C-ggg[…]-GAggg) or with the LS5 as-1 element replaced with adenosines (LS5/LS7, 6-FAM-C-ggg[…]ggg) as well as their complementary oligonucleotides (Integrated DNA Technologies). The uppercase bases indicate the LS5/LS7 sequence; the lowercase bases indicate overhangs outside the LS5/LS7 sequence; and bases replaced with adenosines are indicated with A's in the small capital font. Pairs of complementary DNA strands were annealed before the binding reaction. For each binding reaction, the desired protein combination was mixed with the target DNA probe together with 30 ng/μL of poly (dI-dC) (non-specific competitor, Thermo Fisher Scientific) in a binding buffer containing 20 mM HEPES (pH 8.0), 300 mM NaCl, 10% glycerol, 1 mM DTT and 0.2 mM SA. […] After electrophoresis, the gel was scanned with the Typhoon FLA 7000 imager (GE Healthcare).

[6] = target: the molecule itself; assay: hydrogen peroxide-induced oligomerization, non-reducing SDS-PAGE
Experimental: WT NPR1 BTB/BHB (Thr39-Lys262) and the npr1(C156A), npr1 (C82A) and npr1(C212V/C216A/C223L) mutants were cloned into the pTrcHis vector (Thermo Fisher Scientific) as His10-MBP fusion proteins with a PreScission protease site following MBP and a C-terminal Strep tag. The proteins were expressed and purified similarly to the NPR1 (²SBD) as described above. The NPR1 BTB/BHB WT and mutant proteins at a concentration of 25 μM were incubated with 1 mM hydrogen peroxide in a buffer containing 125 mM HEPES and 150 mM NaCl at pH 8.0 at room temperature for 45 min. The oxidized samples were incubated with 50 mM iodoacetamide for 5 min, mixed with 4× SDS loading dye and analyzed using SDS-PAGE in the absence of any reducing reagent.

B1: Arabidopsis NPR1(deltaSBD) (Thr39-Asp410) with C-terminal Strep tag (other)
chain: TGPDVSALQLLSNSFESVFDSPDDFYSDAKLVLSDGREVSFHRCVLSARSSFFKSALAAAKKEKDSNNTAAVKLELKEIAKDYEVGFDSVVTVLAYVYSSRVRPPPKGVSECADENCCHVACRPAVDFMLEVLYLAFIFKIPELITLYQRHLLDVVDKVVIEDTLVILKLANICGKACMKLLDRCKEIIVKSNVDMVSLEKSLPEELVKEIIDRRKELGLEVPKVKKHVSNVHKALDSDDIELVKLLLKEDHTNLDDACALHFAVAYCNVKTATDLLKLDLADVNHRNPRGYTVLHVAAMRKEPQLILSLLEKGASASEATLEGRTALMIAKQATMAVECNNIPEQCKHSLKGRLCVEILEQEDKREQIPRD
notes: E. coli expressed, His10-MBP removed; Crystal structure PDB 7MK3; two dimers stack to a tetramer in the crystal; also called NPR1 (ASBD); NPR1 (^2SBD); not shown: C-terminal Strep tag
binding result [1]: binds

B2: Arabidopsis TGA3 NID (Ala160-Thr384) with C-terminal tandem Flag-HA tag (other, Arabidopsis thaliana, UniProt Q39234 160-384, looked up)
chain: AGNMNSGIAAFEMEYTHWLEEQNRRVSEIRTALQAHIGDIELKMLVDSCLNHYANLFRMKADAAKADVFFLMSGMWRTSTERFFQWIGGFRPSELLNVVMPYVEPLTDQQLLEVRNLQQSSQQAEEALSQGLDKLQQGLVESIAIQIKVVESVNHGAPMASAMENLQALESFVNQADHLRQQTLQQMSKILTTRQAARGLLALGEYFHRLRALSSLWAARPREHT
notes: range 160-384; Crystallised as a dimer with palmitate (PDB 7TAE); not shown: C-terminal tandem Flag-HA tag
binding result [2]: binds

binding result [4]: binds
B3: Arabidopsis TGA3 (Asn87-Thr384) with C-terminal tandem Flag-HA tag (other, Arabidopsis thaliana, UniProt Q39234 87-384, looked up)
chain: NNDQDEDRINDKMKRRLAQNREAARKSRLRKKAHVQQLEESRLKLSQLEQELVRARQQGLCVRNSSDTSYLGPAGNMNSGIAAFEMEYTHWLEEQNRRVSEIRTALQAHIGDIELKMLVDSCLNHYANLFRMKADAAKADVFFLMSGMWRTSTERFFQWIGGFRPSELLNVVMPYVEPLTDQQLLEVRNLQQSSQQAEEALSQGLDKLQQGLVESIAIQIKVVESVNHGAPMASAMENLQALESFVNQADHLRQQTLQQMSKILTTRQAARGLLALGEYFHRLRALSSLWAARPREHT
notes: range 87-384; E. coli expressed; His10-MBP removed with PreScission protease; two dimers per NPR1 dimer in the full complex; also called TGA3-Flag-HA; not shown: C-terminal tandem Flag-HA tag
binding result [3]: binds

B4: PR1 promoter LS5-/LS7- (both as-1 replaced) (dsDNA)
DNA 1: GGGCTAAAAAAAAAGTAAAATAGAAAAAAAAAGAGGG
DNA 2: CCCTCTTTTTTTTTCTATTTTACTTTTTTTTTAGCCC
binding result [5]: no binding

B5: WT NPR1 BTB/BHB (Thr39-Lys262) with C-terminal Strep tag (other)
chain: TGPDVSALQLLSNSFESVFDSPDDFYSDAKLVLSDGREVSFHRCVLSARSSFFKSALAAAKKEKDSNNTAAVKLELKEIAKDYEVGFDSVVTVLAYVYSSRVRPPPKGVSECADENCCHVACRPAVDFMLEVLYLAFIFKIPELITLYQRHLLDVVDKVVIEDTLVILKLANICGKACMKLLDRCKEIIVKSNVDMVSLEKSLPEELVKEIIDRRKELGLEVPK
notes: E. coli expressed, His10-MBP fusion with PreScission site, purified as NPR1(deltaSBD); Used in hydrogen peroxide oxidation assay; also called NPR1 BTB-BHB domain; NPR1 (residues Thr39-Lys262); not shown: C-terminal Strep tag
binding result [6]: binds
